From publication PMC4249942 (Biochemistry, 2012)
Numbering of substitutions follows the chain as printed. Numbers in names are those of the source.

Experiments:
PerB [1] = target: T1, PerB (Caulobacter vibrioides, UniProt O85353); test: HPLC, ESI-MS and 1H NMR of the product; assay type: biochemical; conditions: acetyl CoA 1 mM, HEPES pH 7.5, 10 mM MgCl2, room temperature
PerB [2] = target: T1, PerB; test: X-ray crystal structure, […] Å; assay type: binding
discontinuous HPLC assay [3] = substrate: CC(=O)SCCNC(=O)CCNC(=O)[C@H](O)C(C)(C)COP(=O)(O)OP(=O)(O)OC[C@H]1O[C@@H](n2cnc3c(N)ncnc32)[C@H](O)[C@@H]1OP(=O)(O)O; test: discontinuous HPLC assay; assay type: biochemical, Caulobacter vibrioides; conditions: pH 8.0, 25 °C, GDP-perosamine co-substrate
discontinuous HPLC assay [4] = substrate: C[C@H]1O[C@H](OP(=O)(O)OP(=O)(O)OC[C@H]2O[C@@H](n3cnc4c(=O)[nH]c(N)nc43)[C@H](O)[C@@H]2O)[C@@H](O)[C@@H](O)[C@@H]1N; test: discontinuous HPLC assay; assay type: biochemical, Caulobacter vibrioides; conditions: pH 8.0, 25 °C, acetyl CoA co-substrate

`C[C@H]1O[C@H](OP(=O)(O)OP(=O)(O)OC[C@H]2O[C@@H](n3cnc4c(=O)[nH]c(N)nc43)[C@H](O)[C@@H]2O)C(O)CC1N` (some centres unmarked) [GDP-3-deoxyperosamine] was tested, and the “HPLC, ESI-MS and 1H NMR of the product” value (PerB [1]) was “Using GDP-3-deoxyperosamine, we were able to, indeed, show that PerB produces an acetylated form”.

In the case of `CC(C)(COP(=O)(O)OP(=O)(O)OC[C@H]1O[C@@H](n2cnc3c(N)ncnc32)[C@H](O)[C@@H]1OP(=O)(O)O)[C@@H](O)C(=O)NCCC(=O)NCCS` [CoA], the “X-ray crystal structure, 1.0 Å” value (PerB [2]; with GDP-perosamine) is reported as “The first was that of the enzyme with bound CoA and GDP-perosamine”.

In the case of `CC(=O)N[C@H]1[C@H](O)[C@H](O)[C@@H](OP(=O)(O)OP(=O)(O)OC[C@H]2O[C@@H](n3cnc4c(=O)[nH]c(N)nc43)[C@H](O)[C@@H]2O)O[C@@H]1C` [GDP-N-acetylperosamine], the “X-ray crystal structure, 1.0 Å” value (PerB [2]; with CoA, formed by turnover in the crystal) is reported as “The enzyme turned over, and CoA and GDP-N-acetylperosamine were left bound in the active site”.

B1: PerB (Caulobacter vibrioides) (protein)
chain: MSASLAIGGVVIIGGGGHAKVVIESLRACGETVAAIVDADPTRRAVLGVPVVGDDLALPMLREQGLSRLFVAIGDNRLRQKLGRKARDHGFSLVNAIHPSAVVSPSVRLGEGVAVMAGVAINADSWIGDLAIINTGAVVDHDCRLGAACHLGPASALAGGVSVGERAFLGVGARVIPGVTIGADTIVGAGGVVVRDLPDSVLAIGVPAKIKGDRS
B1 was tested, and the Km (discontinuous HPLC assay [3]) was 150 ± 20 µM and the Km (discontinuous HPLC assay [4]) was 87 ± 11 µM.

B2: PerB (Caulobacter vibrioides; H141N) (protein)
chain: B1 chain with H141N
Molecule B2 has a Km (discontinuous HPLC assay [3]) of 94 ± 17 µM and a Km (discontinuous HPLC assay [4]) of 150 ± 10 µM.

B3: PerB (Caulobacter vibrioides; D142N) (protein)
chain: B1 chain with D142N
B3 showed a Km (discontinuous HPLC assay [3]) of 59 ± 7 µM and a Km (discontinuous HPLC assay [4]) of 110 ± 10 µM.

B4: PerB (Caulobacter vibrioides; H141A) (protein)
chain: B1 chain with H141A
B4 was tested, and the Km (discontinuous HPLC assay [3]) was 110 ± 10 µM and the Km (discontinuous HPLC assay [4]) was 200 ± 10 µM.
